In article PMC4534855 (2015):

B1: Flag-eIF2β, wild type [S. cerevisiae] / eIF2γ in yeast whole-cell extracts [yeast (endogenous in yeast whole-cell extracts)] (parent complex)
chain 1: MSSDLAAELGFDPALKKKKKTKKVIPDDFDAAVNGKENGSGDDLFAGLKKKKKKSKSVSADAEAEKEPTDDIAEALGELSLKKKKKKTKDSSVDAFEKELAKAGLDNVDAESKEGTPSANSSIQQEVGLPYSELLSRFFNILRTNNPELAGDRSGPKFRIPPPVCLRDGKKTIFSNIQDIAEKLHRSPEHLIQYLFAELGTSGSVDGQKRLVIKGKFQSKQMENVLRRYILEYVTCKTCKSINTELKREQSNRLFFMVCKSCGSTRSVSSIKTGFQATVGKRRRM
chain 2: MSDLQDQEPSIIINGNLEPVGEPDIVEETEVVAQETQETQDADKPKKKVAFTGLEEDGETEEEKRKREFEEGGGLPEQPLNPDFSKLNPLSAEIINRQATINIGTIGHVAHGKSTVVRAISGVQTVRFKDELERNITIKLGYANAKIYKCQEPTCPEPDCYRSFKSDKEISPKCQRPGCPGRYKLVRHVSFVDCPGHDILMSTMLSGAAVMDAALLLIAGNESCPQPQTSEHLAAIEIMKLKHVIILQNKVDLMREESALEHQKSILKFIRGTIADGAPIVPISAQLKYNIDAVNEFIVKTIPVPPRDFMISPRLIVIRSFDVNKPGAEIEDLKGGVAGGSILNGVFKLGDEIEIRPGIVTKDDKGKIQCKPIFSNIVSLFAEQNDLKFAVPGGLIGVGTKVDPTLCRADRLVGQVVGAKGHLPNIYTDIEINYFLLRRLLGVKTDGQKQAKVRKLEPNEVLMVNIGSTATGARVVAVKADMARLQLTSPACTEINEKIALSRRIEKHWRLIGWATIKKGTTLEPIA

Variants of: B1
Assay: co-immunoprecipitation with FLAG affinity resin, quantified western; yeast whole-cell extracts; three biological replicates; read off a plot

How did the response turn out when chain 1 MSSDLAAELGFDPALKKKKKTKKVIPDDFDAAVNGKENGSGDDLFAGLKKKKKKSKSVSADAEAEKEPTDDIAEALGELSLKKKKKKTKDSSVDAFEKELAKAGLDNVDAESKEGTPSANSSIQQEVGLPYSELLSRFFNILRTNNPELAGDRSGPKFRIPPPVCLRDGKKTIFSNIQDIAEKLHRSPEHLIQYLFAELGTAGSVDGQKRLVIAGKFQSKQMENVLRRYILEYVTCKTCKSINTELKREQSNRLFFMVCKSCGSTRSVSSIKTGFQATVGKRRRM [chain 1 S202A, chain 1 K214A] was run?
Its response is ~0.89 eIF2γ:eIF2β.

For chain 1 MSSDLAAELGFDPALKKKKKTKKVIPDDFDAAVNGKENGSGDDLFAGLKKKKKKSKSVSADAEAEKEPTDDIAEALGELSLKKKKKKTKDSSVDAFEKELAKAGLDNVDAESKEGTPSANSSIQQEVGLPYSELLSRFFNILRTNNPELAGDRSGPKFRIPPPVCLRDGKKTIFSNIQDIAEKLHRSPEHLIQYLFAELGTSGSVDGQKRLVIKGKAQSKAMENVLRRYILEYVTCKTCKSINTELKREQSNRLFFMVCKSCGSTRSVSSIKTGFQATVGKRRRM [chain 1 F217A, chain 1 Q221A], which response is on record?
The response was ~0.82 eIF2γ:eIF2β.
